A word on the Kd: it is the equilibrium constant for the complex coming apart. A higher Kd goes with weaker binding. Broadly, the kon is the rate constant with which the complex forms. The term koff denotes a measure of how fast the partners let go of each other. A high value points to a short-lived complex.

Here are results for three molecules from patent US20230406909A1 (ROCHE DIAGNOSTICS OPERATIONS, published 2023).

Read-outs that look alike come from different tables or passages of the source.

In experiment [1] the target is T1, SlyD-SlyD-tagged nucleocapsid full-length protein (EcSlyD-EcSlyD-CoV-2-N(1-419)) (SARS-CoV-2).
Experiment [2] concerns the target T1, SlyD-SlyD-tagged nucleocapsid …. Briefly: SPR (Biacore), captured antibody, NCP analyte, Langmuir 1:1 fit. In general terms: In SPR one partner is held on a chip, and binding of the other changes the refractive index at the surface.
The target is the same in experiment [3]. This is another data set of the same source.

B1: Antibody 1.1.32 (antibody, V domains shown)
VH: EVQLQQSGPELVKPGASVKMSCKASGYTFTTYVMHWVKQKPGQGLEWIGYSDPYNGDSKDNENFKGKATLTSDKSSSTVYMELSSLTSEDSAVYYCARGFGNYLFYFDYWGQGTTLTVSS
VL: DIQMTQTTSSLSASLGDRVTISCSASQDIRDYLNWYQQKPDGTVKLLIYYTSNLHSGVPSRFSGSGSGTDYSLTISNLEPEDIATYFCQQYSKLPYTFGGGTKLEIK
notes: also called M-1.1.32; clone 1.1.32
Consider B1, for which, in experiment [1], binding was put at a Kd of 0.059 nM, the “MR (molar ratio)” value is 0.9, the kon was 340000 M⁻¹ s⁻¹ and the t1/2 diss was determined as 9.65 h. In experiment [2], binding was put at a Kd of 0.059 nM, the “MR (molar ratio)” value was 0.9, the kon worked out at 340000 M⁻¹ s⁻¹ and the t1/2 diss was determined as 9.65 h. Also, in experiment [3], the Kd turned out to be 0.06 nM and the koff amounted to 2e-05 s⁻¹.

B2: Antibody 5B6 (antibody, V domains shown)
VH: SQSVEESGGRLVTPGTPLTLTCTASGFSLSSYYMSWVRQAPGKGLEWIGVMTAGGSTFYASWAKGRFTISKTSTTVDLKITSPTTEDTATYFCARSIDTNYGSSIWGPGTLVTVSL
VL: DVVMTQTPASMSEPVGGTVTIKCQASEDIYTYLSWYQQQSGQPPKVLIYAASNLASGVSSRFKGSRSGTEYTLTISDLECADAATYYCQGDYYGSNYGLGTFGGGTEVVVK
notes: also called clone 5B6
Consider B2, for which, in experiment [1], the “MR (molar ratio)” value was 1.7, the koff was 0.00012 s⁻¹, the kon turned out to be 180000 M⁻¹ s⁻¹ and the t1/2 diss was determined as 1.55 h. In addition, in experiment [2], the “MR (molar ratio)” value was 1.7, the koff was 0.00012 s⁻¹, the kon came to 180000 M⁻¹ s⁻¹ and the t1/2 diss was determined as 1.55 h. The molecule further displayed a Kd in experiment [3] of 0.7 nM.

B3: Antibody 1G9 (antibody, V domains shown)
VH: SQSVEESGGRLVTPGTPLTLTCTVSGFSLSTYAVNWVRQAPGKGLEWIGVIDGSGSTYYANWAKGRFTISKASTTVDLKITSPTTEDTATYFCARGAGTDNFGNLNLWGPGTLVTVSS
VL: DVVMTQTPASVEVAVGGTVTIKCQASESISSWLAWYQQKPGQPPKLLIYRASTLASGVPSRFKGSGSGTEYTLTISGVECADAATYYCQQDYSTSNIDNTFGGGTEVVVK
notes: also called clone 1G9
Regarding B3, in experiment [1], the “MR (molar ratio)” value was 1.2, the koff is 0.00024 s⁻¹, the on-rate constant (kon) was 200000 M⁻¹ s⁻¹ and the t1/2 diss came to 0.8 h. Further, in experiment [2], the “MR (molar ratio)” value was 1.2, the koff was 0.00024 s⁻¹, the kon was determined as 200000 M⁻¹ s⁻¹ and the t1/2 diss is 0.8 h. Moreover, in experiment [3], binding was characterised by a dissociation constant (Kd) of 1.2 nM.
